Source: publication PMC12392869 (2025)

Target: biotinylated NeoNectin candidate 1 (NN-C1) (biotin (N-terminal biotin; enzymatic biotinylation of the Avi-tag))
Experiment: BLI

- Kd: 1000 nM
B1: integrin αvβ8 ectodomain (complex)
chain 1: FNLDVDSPAEYSGPEGSYFGFAVDFFVPSASSRMFLLVGAPKANTTQPGIVEGGQVLKCDWSSTRRCQPIEFDATGNRDYAKDDPLEFKSHQWFGASVRSKQDKILACAPLYHWRTEMKQEREPVGTCFLQDGTKTVEYAPCRSQDIDADGQGFCQGGFSIDFTKADRVLLGGPGSFYWQGQLISDQVAEIVSKYDPNVYSIKYNNQLATRTAQAIFDDSYLGYSVAVGDFNGDGIDDFVSGVPRAARTLGMVYIYDGKNMSSLYNFTGEQMAAYFGFSVAATDINGDDYADVFIGAPLFMDRGSDGKLQEVGQVSVSLQRASGDFQTTKLNGFEVFARFGSAIAPLGDLDQDGFNDIAIAAPYGGEDKKGIVYIFNGRSTGLNAVPSQILEGQWAARSMPPSFGYSMKGATDIDKNGYPDLIVGAFGVDRAILYRARPVITVNAGLEVYPSILNQDNKTCSLPGTALKVSCFNVRFCLKADGKGVLPRKLNFQVELLLDKLKQKGAIRRALFLYSRSPSHSKNMTISRGGLMQCEELIAYLRDESEFRDKLTPITIFMEYRLDYRTAADTTGLQPILNQFTPANISRQAHILLDCGEDNVCKPKLEVSVDSDQKKIYIGDDNPLTLIVKAQNQGEGAYEAELIVSIPLQADFIGVVRNNEALARLSCAFKTENQTRQVVCDLGNPMKAGTQLLAGLRFSVHQQSEMDTSVKFDLQIQSSNLFDKVSPVVSHKVDLAVLAAVEIRGVSSPDHVFLPIPNWEHKENPETEEDVGPVVQHIYELRNNGPSSFSKAMLHLQWPYKYNNNTLLYILHYDIDGPMNCTSDMEINPLRIKISSLQTTEKNDTVAGQGERDHLITKRDLALSEGDIHTLGCGVAQCLKIVCQVGRLDRGKSAILYVKSLLWTETFMNKENQNHSYSLKSSASFNVIEFPYKNLPIEDITNSTLVTTNVTWGIQPAPMPV
chain 2: EDNRCASSNAASCARCLALGPECGWCVQEDFISGGSRSERCDIVSNLISKGCSVDSIEYPSVHVIIPTENEINTQVTPGEVSIQLRPGAEANFMLKVHPLKKYPVDLYYLVDVSASMHNNIEKLNSVGNDLSRKMAFFSRDFRLGFGSYVDKTVSPYISIHPERIHNQCSDYNLDCMPPHGYIHVLSLTENITEFEKAVHRQKISGNIDTPEGGFDAMLQAAVCESHIGWRKEAKRLLLVMTDQTSHLALDSKLAGIVVPNDGNCHLKNNVYVKSTTMEHPSLGQLSEKLIDNNINVIFAVQGKQFHWYKDLLPLLPGTIAGEIESKAANLNNLVVEAYQKLISEVKVQVENQVQGIYFNITAICPDGSRKPGMEGCRNVTSNDEVLFNVTVTMKKCDVTGGKNYAIIKPIGFNETAKIHIHRNCSCQCEDNRGPKGKCVDETFLDSKCFQCDENKCHFDEDQFSSESCKSHKDQPVCSGRGVCVCGKCSCHKIKLGKVYGKYCEKDDFSCPYHHGNLCAGHGECEAGRCQCFSGWEGDRCQCPSAAAQHCVNSKGQVCSGRGTCVCGRCECTDPRSIGRFCEHCPTCYTACKENWNCMQCLHPHNLSQAILDQCKTSCALMEQQHYVDQTSECFSSPSYLR
